In PMC9662066 (Emerging Microbes & Infections, 2022):
Positions count from the first letter of the chain named.

B1: LY-CoV555 (antibody, V domains shown)
VH: QVQLVQSGAEVKKPGSSVKVSCKASGGTFSNYAISWVRQAPGQGLEWMGRIIPILGIANYAQKFQGRVTITADKSTSTAYMELSSLRSEDTAVYYCARGYYEARHYYYYYAMDVWGQGTAVTVSS
VL: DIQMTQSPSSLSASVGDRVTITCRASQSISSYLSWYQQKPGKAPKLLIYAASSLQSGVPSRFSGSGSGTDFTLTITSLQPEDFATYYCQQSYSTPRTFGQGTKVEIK
B2: MW01 (antibody, V domains shown)
VH: EVQLVQSGAEVKKPGSSVKVSCKASGGTFSSFSISWVRQAPGQGLEWMGRIIPVLGIANYAQEVQGRVTITADKSTSTAYMELSSLRSEDTAVYFCTTDRFVEPATGPFFDYWGQGTLVTVSS
VL: EIVMTQSPATLSVSPGERATLSCRASQSVSSNLAWYQQKPGQAPRLLIYGASTRATGIPARFSGSGSGTEFTLTISSLQSEDFAVYYCQQYSNWLTFGGGTKVEIK
B3: FC08 (antibody, V domains shown)
VH: QLLQQSGAEVKKPGSSVKVSCKASGGTFSSYAISWVRQAPGQGLEWMGGIIPIIGIANYAQKFQGRVTITADKSTSTAYMELSSLRSEDTAVYYCARERGYSGYGAAYYFDYWGQGTLVTVSS
VL: SVLTQPPSVSGAPGQRVTISCTGSSSNIGAGYDVHWYQQLPGTAPKLLIYGNSNRPSGVPDRFSGSKSGTSASLAITGLQAEDEADYYCQSYDSSLSGSVFGGGTKLTVL
B4: R1-32 (antibody, V domains shown)
VH: EVQLVESGAEVKKPGSSVKVSCKASGGTFSSYAISWVRQAPGQGLEWMGGIIPILGIANYAQKFQGRVTITADKSTSTAYMELSSLRSEDTAVYYCARENGYSGYGAAANFDLWGRGTLVTVSS
VL: QSVLTQPPSVSGAPGQRVTISCTGSSSNIGAGYDVHWYQQLPGTAPKLLIYGNSNRPSGVPDRFSGSKSGTSASLAITGLQAEDEADYYCQSYDSSLSGSVFGGGTKLTVL
B5: nCoV617 (antibody, V domains shown)
VH: QVQLVESGGGVVQPGRSLRLSCAASGFTFSSYAMHWVRQAPGKGLEWVALISYDGSNKYADSVKGRFTISRDNSKNTLYLQMNSLRAEDTAVYYCARGLGLRFLEWPISSYWGQGTLVTVSS
VL: not shown
notes: IgG1; IGHV3-30
B6: 2-15 (antibody, V domains shown)
VH: QVQLVQSGAEVKKPGASVRVSCKASGYTFTGYYMHWVRQAPGQGLEWMGWINPISDGTNYAQKFQGWVTMTRDTSISTVYMELSRLRSDDTAVYYCARGGSRCSGGNCYGWAYDAFDIWGQGTMITVSS
VL: QSALTQPASVSGSPGQSITISCTGTSSDVGGYNFVSWYQQHPGKAPKLMIYDVSKRPSGVSNRFSGSKSGNTASLTISGLQAEDEADCYCSSYTSSSTFVFGTGTKVTVL
notes: IgG1; IGHV1-2
B7: CV07-270 (antibody, V domains shown)
VH: QVQLVESGGGLVKPGGSLRLSCAASGFTFSDYYMTWIRQAPGKGLEWVSYISSSGSTIYYADSVKGRFTISRDNAKNSLYLQMNSLRAEDTAVYYCARARGSSGWYRIGTRWGNWFDPWGQGTLVTVSS
VL: B6 VL with F34Y, D52E, K55N, C88Y, T98N, F99V, T103G, K106M, V107L
B8: C548 (antibody, V domains shown)
VH: QVQLVQSGAEVKKPGSSVKVSCKASGGTFSSYAISWVRQAPGQGLEWMGGIIPIFGTANYAQKFQGRVTITADESTSTAYMELSSLRSEDTAVYYCARREAYGPRDYYYYYGMDVWGQGTTVTVSS
VL: QSALTQPPSASASLGASVTLTCTLSSGYSNYKVDWYQQRPGKGPRFVMRVGTGGIVGSKGDGIPDRFSVLGSGLNRYLTIKNIQEEDESDYHCGADQGSGSNFVGVFGGGTKLTVG
notes: IgG1; IGHV1-69-encoded
B9: A19-61.1 (antibody, V domains shown)
VH: QVQLVESGGGVVQPGRSLRLSCAASGFTFSSYAFHWVRQAPGKGLEWVAVISYDGSNQYYADSVKGRFTISRDNSKNTLYLQMNSLRADDTAVYYCARDLAIAVAGTWHYYNGMDVWGQGTTVTVSS
VL: DIQMTQSPSSVSASVGDRVIITCRASQGISSWLAWYQQKPGKAPKVLIYDASSLQSGVPSRFSGSGYGTDFTLTISSLQPEDSATYYCQQAKSFPITFGQGTRLEIK
notes: IgG1; IGHV3-30
B10: BD-667 (antibody, V domains shown)
VH: QVQLVESGGGLVKPGGSLRLSCAASGFRFSDYYMNWIRQAPGKGLEWISYIGSGGFATYYGDSVKGRFTVSRDDAENSLYLQMNSLRAEDTAVYYCARGVTSYSDNSGNYRTDDAFDIWGQGTMVTVSS
VL: EIVMTQSPATLSVSPGERATLSCRASQSVSRNLAWYQQRPGQAPRLLIYGASTRATGVAARFTGSGFGTEFTLTISGLQSEDFAVYYCQEYNNWPPWTFGQGTKVEIK
notes: IgG1; IGHV3-11

target: T1, SARS-CoV-2 WT-RBD (SARS-CoV-2, UniProt P0DTC2); assay: ELISA; conditions: both partners purified
T1 construct: not shown: 6-His, C-terminal, kept

Row | Binder | binding result
1 | B1 | binds
2 | B2 | binds
3 | B3 | binds
4 | B4 | binds

target: T1, SARS-CoV-2 WT-RBD; assay: BLI; conditions: both partners purified

Row | Binder | binding result
5 | B5 | binds
6 | B6 | binds
7 | B7 | binds
8 | B8 | binds
9 | B9 | binds
10 | B10 | binds
